{
  "source": "IntAct's records for PubMed 21946561",
  "parents": {"B1": {"name": "Neuronal tyrosine-phosphorylated phosphoinositide-3-kinase adapter 2 (Mus musculus), Q8BM65-4 (parent)", "chain": "MIPSKMMSANPEEDPLDTFFQYIEDMGMKAYDGLVIQNASDIARENDRLRNETKLAYLKEKNEKRRRQEETIKRIGGEVGRGQDASYAGKHFRMGFMTMPAPQDRLPHPCSSGFTVRSQSLHSVGGTEDDSSCGSRRQPPPKPKRDPSTKLSTSSETVNSTAASKSGRSLERAEGKFTVPASHSPPRASTSGHLFPSPGSQERNIKVSAKPRPHSDEYSKKIPPPKPKRNPNTQLSTSFDETYIKKHVPRRTSLPRDSSLSQVCSPAADPEEEEPVYIEMVGNILRDFRKEEDDQSEAVYEEMKYPIFDDLGHDSKCDFDHHSCSSQCATPTVPDLDFVKSSGPCTPKGLLCDIPPPFPNLLSHRPPLLVFPPAPVHCSPNSDESPLTPLEVTKLPVLENVSYMKQPPGACPSSLPSHGSSHAKDQTGALGPAPGASILSSSPPPPSTLYRTQSPHGYPKSHSTSPSPVSMGRSLTPLSLKRPPPYDAVHSGSLSRSSSSVPHTTPRPVSQDGAKMVNAAVNTYSAAQSGSRSRTPTSPLEELTSLFTSGRSLLRKSSSGRRSKEPAEKSTEELKVRSHSTEPLPKLDSKERGHYGSSSSREPVKAQEWDGTPGPPVVTSRMGRCSVSPTLLAGNHSSEPKVSCKLGRSASTSGVPPPSVTPLRQASDLQQSQVACMQWFHGDHTMLEMIEKKRCLCKEIKARQKTEKGLCKQDSMPILPSWKKNAGAKKYSPPPYSKQQTVFWDTAI"}, "B2": {"name": "Neuronal tyrosine-phosphorylated phosphoinositide-3-kinase adapter 1 (Mus musculus), Q6PFX7 (parent)", "chain": "MNLLYRKTKLEWRQHKEEEAKRSSSKEAAPTGPVGPGAVPGPGVRVRDIASLRRSLRMGFMTMPASQEHTPHPCRSTMAPRSLSCHSVGSMDSVGGGPGGGLTEDSSTRRPPAKPRRHPSTKLSMAGPGAETPPSKKAGSQKPAPECRESSRKVPPQKPRRSPNTQLSVSFDESCAPAPSPRGANLPLQRLSRASRITGDLDAGAQEEEPVYIEMVGDVFRGGGRSGGGLAGPPLGSGGPTPPAAADSDSEDSEAIYEEMKYPLPEEAGDGRANGPPPLTAPSPPQQTHILQPHPHPHRRPASALPSRRDGTPTKTTPCEIPPPFPNLLQHRPPLLAFPQAKSASRAPGDGVSRLPVLCHSKEPAGSTPAPQVPARERETPPLPPPPPAANLLLLGPSGRARSHSTPLPPQGSGQTRGERELPNSHSMICPKAAGVPAAHPAPAALLPGPPKDKAVSYTMVYSAVKVTTHSVLPAGPPLGVGEPKTEEISVLHGMLCASSRPPVPGKSSPHSGAMGSAAGVLHHRSCLASPHSLPDPTGGSLTPLWTYPATAAGLKRPPAYDSLKAGGVLNKGCGMGAPSPMVKIQLQEQGTDGGAFASISCAHVIASAGTPEEEEEMGAAFGAGWALQRKVLYGGRKAKEVDTEEDGARAWNGSTEGPGKVEHEDRGPVPSGIPVRSQGAEGLLARIHHDRGGSRTALPVPCQTFPACHRNGDFTGGYRLGRSASTSGVRQAALHTPRPCSQPRDALSQTHPVLPLPLPPQPARERDGKLLEVIERKRCVCKEIKARHRPDRGLCKQESMPILPSWRRVPEPRKSGTPPCRRQHTVLWDTAI"}},
  "data": [
    {"variants_of": "B1", "conditions": "with p85a_human PIK3R1, P27986", "values": [
      {"variant": "Y277F", "effect of a mutation on the interaction": "disrupting interaction"},
      {"variant": "Y300F", "effect of a mutation on the interaction": "disrupting interaction"}
    ]},
    {"variants_of": "B2", "conditions": "with p85a_human PIK3R1, P27986", "values": [
      {"variant": "Y257F", "effect of a mutation on the interaction": "disrupting interaction"},
      {"variant": "Y212F", "effect of a mutation on the interaction": "disrupting interaction"}
    ]},
    {"variants_of": "B2", "conditions": "with p85a_human PIK3R1, P27986", "remark": "another data set of the same source", "values": [
      {"variant": "Y257F", "effect of a mutation on the interaction": "decreasing interaction"}
    ]}
  ]
}
